Laboratory results reported in article PMC12172022, “Overexpression of TaPIP1A enhances drought and salt stress tolerance in Arabidopsis: cross-species conservation and molecular dynamics”.

Biological target: MBP-TaWRKY71 (Triticum aestivum (wheat) cv. KN9204, UniProt A0A3S6GV84 1-300)
Assay: EMSA; complex signal weakened by 200-fold unlabeled competitor; LightShift chemiluminescent EMSA, 6% gel (printed as SDS-PAGE); 25 min at room temperature; probe annealed in 10 mM Tris-HCl pH 7.6, 1 mM EDTA, 50 mM NaCl; binding buffer not stated
Settings: protein: recombinant; tags: N-terminal MBP (pMALC2X); label: 5' biotin; blunt

MBP-TaWRKY71, sequence (A0A3S6GV84 entry or part of it): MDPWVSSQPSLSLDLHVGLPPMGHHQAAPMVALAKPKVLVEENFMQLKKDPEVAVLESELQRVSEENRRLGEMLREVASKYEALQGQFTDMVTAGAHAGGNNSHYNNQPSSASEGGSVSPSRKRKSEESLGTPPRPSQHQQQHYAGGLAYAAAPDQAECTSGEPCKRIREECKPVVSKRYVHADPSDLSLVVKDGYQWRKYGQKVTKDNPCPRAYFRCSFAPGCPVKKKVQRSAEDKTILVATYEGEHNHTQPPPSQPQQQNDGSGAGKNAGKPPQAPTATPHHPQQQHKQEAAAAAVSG

B1: P-W probe (TaPIP1A promoter) (dsDNA)
DNA 1: CATGACATGACAGGTGAGGTGACACCACAAG
DNA 2: CTTGTGGTGTCACCTCACCTGTCATGTCATG
- binding result: binds
